The values that follow come from publication PMC11835620, “CleanCap M6 inhibits decapping of exogenously delivered IVT mRNA”.

This data set deals with eIF4E (human, UniProt P06730 1-217). The data set is described as follows: EMSA; KD measured but printed only in the figure; higher affinity than M6 3'OMe; EMSA: 25 nM oligo, eIF4E 5 nM to 1.5 uM (2-fold dilutions), 100 mM NaCl, 50 mM Tris-Cl (pH and remaining components cut off in material), temperature not given. As to conditions: protein: recombinant; (stated for spectral shift oligos); single strand.
Chain of eIF4E (P06730 whole entry): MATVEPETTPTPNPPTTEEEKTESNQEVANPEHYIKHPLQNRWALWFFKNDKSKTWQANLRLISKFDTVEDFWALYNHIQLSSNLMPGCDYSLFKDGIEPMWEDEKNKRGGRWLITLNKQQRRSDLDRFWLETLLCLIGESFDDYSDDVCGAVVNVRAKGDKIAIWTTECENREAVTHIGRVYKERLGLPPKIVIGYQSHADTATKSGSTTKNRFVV

In the case of AGGAAAUAAGAGAGAAAAGAAGAGUAAGAAGAAAUAUAAGAGC (ssRNA, 5' cap m7GpppA(2'OMe)G; A1 is 2'-O-methyl; cap m7G not in strand) [AG 3'OH cap 43-mer], the binding result was “binds”.
